“And” between values parts separate entries of the source, which are not always exact repeats. Equal entries are not always repeated.
Experiments:
[1] = system: full-thickness defect of rabbit knee articular cartilage; experiment: Full-thickness cartilage defect of rabbit knee joint, intra-articular rhMK; type: in vivo, New Zealand white rabbits; details: rabbit knee full-thickness cartilage damage model, 18 samples, 13 recovered; no recovery in saline control sides, P<0.01
Experimental: Method. 2-month-old male New Zealand white rabbits (2.0˜2.5 kg weight) were anesthetized with 3% pentobarbital sodium (30 mg/kg) by ear vein injection. After anesthesia, prepare the skin on both sides of the knees were prepared for sterilization. With conventional surgical sterilization and under sterile conditions, the inner side of knees was cut to expose the femoral condyle surface. The full-thickness cartilage injury was made on the femoral condyle surface for both sides of the rabbit knees using an electrical drill. The cartilage hole was 3 mm in diameter and 4 mm in depth. The wound was closed with 4-0 lines. 400,000 units penicillin was injected daily for one week to prevent the wound site infection. 24 hours after surgery, normal saline or rhMK was injected into the knee articular cavity. The injection volume was 0.5 ml, three times a week for 2 weeks. rhMK was injected into one side of the rabbit knee joint, the other side was injected with saline as control. The rabbits were kept in cages and moved freely without fixation of the injured knees. After 2, 4, 6 and 12 weeks, rabbits were sacrificed. Cartilage tissues of the knee joint were removed for routine biopsy. The tissue sections were prepared for H&E, and fast green—Safranin O staining. The histological observation and evaluation were conducted under microscope.

[2] = system: rat articular chondrocyte; experiment: Cell expansion in passaged monolayer culture; type: cell-based
Experimental: (§1) 1. Preparation of primary chondrocyte. The 8-week-old male SD rats were sacrificed under sterile conditions. The articular cartilage, fibrocartilage and elastic cartilage tissue were isolated from the femur joints, meniscus and outer ear respectively using a scalpel. The isolated cartilage were cut into small pieces, washed twice with phosphate buffered saline (PBS), and digested with trypsin (0.25% (w/v) trypsin/0.02% (w/v) EDTA) at 37° C. for 30 min. The articular cartilage and elastic cartilage were further digested with 0.2% type II collagenase for additional 16 h, and the fibrocartilage were further digested with 0.15% type I collagenase for additional 16 h. After digestion, three chondrocytes were passed through 100 μm filter (Falcon, USA) into 15 ml centrifuge tubes, centrifuged at room temperature at 2000 rpm for 5 min. Cells were resuspended in DMEM containing 10% FBS (fetal bovine serum). Trypan blue staining of the freshly isolated cells was used to monitor the percentage of live cells under the microscope. When the number of live cells is more than 95%, it was used for subsequent experiments.
(§2) 3. Culture of primary chondrocytes in monolayer. Three types of primary chondrocytes were suspended in DMEM medium containing 10% FBS, adjusted to 5×10^4 cells/ml, added to 6-well plate with 2 ml medium/well, and incubated in 37° C. at 5% CO2. Experiment was divided into two groups: control group and experimental group (with 3 μg/ml rhMK). Cell medium was changed every two days. When the cells grew to the confluence of 85% to 90%, the cells were collected by trypsin digestion, washed in PBS by centrifugation. The cells were resuspended in DMEM containing 10% FBS. Cell survival was monitored by trypan blue staining. Part of the cells were used for cell passage; some were for RNA extraction; some were cytospined onto a glass slide for later immunohistochemical staining and the slides were stored at −80° C. Primary cells or passage 0 (P0) were cultured for 7 days. The newly passaged cells were further cultured in a 6-well plate for 3 days which was then collected by trypsin-digestion and marked as passage P1. The cell amplification at each passage=total number of cells at output/total number of cells at initial input.

[3] = system: rat auricular chondrocyte; experiment: Cell expansion in passaged monolayer culture; type: cell-based
Experimental: as §1, §2

rat fibrochondrocyte = experiment: Cell expansion in passaged monolayer culture; type: cell-based
Experimental: as §1, §2

[4] = system: rat auricular chondrocytes; experiment: Phenotype of chondrocytes in monolayer culture (semi-quantitative PCR of Col2a1, collagen II immunohistochemical staining); type: cell-based
Experimental: as §2, with “input. 6. Immunohistochemical staining. […] RNA extraction and semi-quantitative PCR. […] PCR products were separated on 1.5% (w/v) agarose gels and quantified after staining with ethidium bromide in comparison with internal control gene expression of β-actin.” for “input.”

[5] = system: rat fibrochondrocyte and articular chondrocyte; experiment: Phenotype of chondrocytes in monolayer culture (semi-quantitative PCR, collagen II immunohistochemical staining); type: cell-based; details: passages P0-P2, Col2a1/collagen II
Experimental: as §2, with “input. 6. Immunohistochemical staining. […] RNA extraction and semi-quantitative PCR. […] PCR products were separated on 1.5% (w/v) agarose gels and quantified after staining with ethidium bromide in comparison with internal control gene expression of β-actin.” for “input.”

[6] = P0, rhMK 3 μg/ml versus no rhMK
[7] = P1, rhMK 3 μg/ml versus no rhMK
[8] = P2, rhMK 3 μg/ml versus no rhMK

B1: rhMK: recombinant human midkine mature protein (SEQ ID NO.1) expressed in E. coli and purified by ion-exchange chromatography (protein, listed as Homo sapiens)
chain: MKKKDKVKKGGPGSECAEWAWGPCTPSSKDCGVGFREGTCGAQTQRIRCRVPCNWKKEFGADCKYKFENWGACDGGTGTKVRQGTLKKARYNAQCQETIRVTKPCTPKTKAKAKAKKGKGKD
[1]
  rate of recovery in the rhMK treated side: 72.2%
[2]; P0, rhMK 3 μg/ml
  Cell expansion (in fold): 13.5 ± 1.2 fold
[2]; [6]
  Proliferation rate (%): 112%
[2]; P1, rhMK 3 μg/ml
  Cell expansion (in fold): 12.0 ± 1.4 fold
[2]; [7]
  Proliferation rate (%): 74%
[2]; P2, rhMK 3 μg/ml
  Cell expansion (in fold): 11.5 ± 0.5 fold
[2]; [8]
  Proliferation rate (%): 48%
[3]; P0, rhMK 3 μg/ml
  Cell expansion (in fold): 7.9 ± 0.1 fold
[3]; [6]
  Proliferation rate (%): 65%
[3]; P1, rhMK 3 μg/ml
  Cell expansion (in fold): 16.1 ± 1.1 fold
[3]; [7]
  Proliferation rate (%): 66%
[3]; P2, rhMK 3 μg/ml
  Cell expansion (in fold): 8.2 ± 1.0 fold
[3]; [8]
  Proliferation rate (%): 55%
Rat fibrochondrocyte; P0, rhMK 3 μg/ml
  Cell expansion (in fold): 5.3 ± 1.3 fold
Rat fibrochondrocyte; [6]
  Proliferation rate (%): 112% and 110%
Rat fibrochondrocyte; P1, rhMK 3 μg/ml
  Cell expansion (in fold): 28.1 ± 3.4 fold
Rat fibrochondrocyte; [7]
  Proliferation rate (%): 51%
Rat fibrochondrocyte; P2, rhMK 3 μg/ml
  Cell expansion (in fold): 20.9 ± 0.9 fold
Rat fibrochondrocyte; [8]
  Proliferation rate (%): 35%
[4]; auricular chondrocyte after one passage
  effect on Col2a1 expression (semiquantitative PCR): inhibited the decreasing of the Col2a1
[4]; auricular chondrocytes, passage one, rhMK group, not detected without rhMK
  chondrocytes stained collagen II positive: about 50%
[5]
  effect on the phenotype of fibrochondrocyte and articular chondrocyte: no significant effect

From patent US9283300B2, “Use of midkine protein and the protein-containing medical device” (GENERAL REGENERATIVES, LTD, priority 2009, dated 2016)
